From patent US20170082633A1 (WHITEHEAD INSTITUTE FOR BIOMEDICAL RESEARCH, published 2017) come the findings set out here.

Assay [1] deals with T1, endogenous RagC (UniProt Q9HB90 2-399).
T1 construct: Detected by immunoblot in anti-FLAG immunoprecipitates; also called RagC GTPase
Put plainly: FLAG IP from HEK-293T cells stably expressing the bait, immunoblot. Here is the method: (§1) Transfection mixes were taken up to a total of 5 μg of DNA using empty pRK5. HEK-293T cells stably expressing FLAG-tagged proteins were rinsed once with ice-cold PBS and lysed in ice-cold lysis buffer (40 mM HEPES pH 7.4, 1% Triton X-100, 10 mM β-glycerol phosphate, 10 mM pyrophosphate, 2.5 mM MgC12 and 1 tablet of EDTA-free protease inhibitor (Roche) per 25 ml buffer). The soluble fractions from cell lysates were isolated by centrifugation at 13,000 rpm for 10 min in a microcentrifuge. […] Immunoprecipitates were washed three times with lysis buffer containing 500 mM NaCl. Immunoprecipitated proteins were denatured by the addition of 50 μL of sample buffer and incubation at RT for 30 min. It is critical that the samples containing SLC38A9 are neither boiled nor frozen prior to resolution by SDS-PAGE and analysis by immunoblotting. A similar protocol was employed when preparing samples for mass spectrometry.
For orientation: A western blot detects proteins with antibodies after separation by electrophoresis.

Assay [2] concerns the target T2, endogenous p18 (UniProt Q6IAA8 2-161).
T2 construct: Detected by immunoblot in anti-FLAG immunoprecipitates; also called LAMTOR1
Described as above. Here is the method: as §1

The target of assay [3] is endogenous Ragulator (UniProt Q6IAA8 2-161; Q9Y2Q5 1-125; Q9UHA4 1-124; Q0VGL1 1-99; O43504 1-91). Put plainly: anti-FLAG co-immunoprecipitation from HEK-293T cells, immunoblot. The protocol:
(§2) HEK-293T cells were cultured in DMEM supplemented with 10% inactivated fetal bovine serum, penicillin (100 IU/mL), and streptomycin (100 μg/mL) and maintained at 37° C. and 5% CO₂. Two million HEK-293T cells were plated in 10 cm culture dishes.
as §1

Assay [4] has as its target T3, endogenous RagA (UniProt Q7L523 1-313).
T3 construct: Detected by immunoblot in anti-FLAG immunoprecipitates; also called RagA GTPase
Kind of assay: FLAG IP from transfected HEK-293T cells, immunoblot. Here is the method:
as §2, §1

Assay [5] has as its target T4, endogenous SLC38A9 (human, UniProt Q8NBW4 1-561, limits assumed).
T4 construct: Endogenous protein of HEK-293T cells, found by LC-MS-MS or immunoblot; also called SLC38A9 (NCBI Gene ID: 153129)
T4 sequence: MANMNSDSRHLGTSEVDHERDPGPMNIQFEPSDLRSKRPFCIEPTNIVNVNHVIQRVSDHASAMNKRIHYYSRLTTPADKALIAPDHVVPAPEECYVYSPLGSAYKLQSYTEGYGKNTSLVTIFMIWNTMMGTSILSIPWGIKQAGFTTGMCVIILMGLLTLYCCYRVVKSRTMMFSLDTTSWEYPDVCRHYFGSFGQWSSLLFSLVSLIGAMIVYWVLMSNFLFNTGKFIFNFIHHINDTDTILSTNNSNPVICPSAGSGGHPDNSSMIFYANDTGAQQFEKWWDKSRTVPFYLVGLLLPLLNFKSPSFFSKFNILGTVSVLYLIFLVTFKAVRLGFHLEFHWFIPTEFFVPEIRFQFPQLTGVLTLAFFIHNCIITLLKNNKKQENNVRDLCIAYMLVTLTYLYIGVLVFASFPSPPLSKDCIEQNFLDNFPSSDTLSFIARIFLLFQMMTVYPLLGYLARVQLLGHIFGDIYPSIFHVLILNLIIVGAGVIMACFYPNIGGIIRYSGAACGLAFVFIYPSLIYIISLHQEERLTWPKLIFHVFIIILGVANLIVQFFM
Kind of assay: FLAG IP from HEK-293T cells stably expressing the bait, - or + amino acids; immunoblot.

Assay [6] addresses T5, raptor (human (HEK-293T cells), UniProt Q8N122).
T5 construct: endogenous; Named only on the sheet
Kind of assay: FLAG IP from transfected HEK-293T cells, immunoblot. Here is the method:
as §2, §1

For assay [7], the target named is co-expressed epitope tagged Ragulator proteins (UniProt Q6IAA8 2-161; Q9Y2Q5 1-125; Q9UHA4 1-124; Q0VGL1 1-99; O43504 1-91). Kind of assay: FLAG IP (FLAG-p14) from HEK-293T cells co-transfected with the HA-tagged Ragulator components and HA-SLC38A9.4; immunoblot.

T5 sequence (Q8N122 whole entry): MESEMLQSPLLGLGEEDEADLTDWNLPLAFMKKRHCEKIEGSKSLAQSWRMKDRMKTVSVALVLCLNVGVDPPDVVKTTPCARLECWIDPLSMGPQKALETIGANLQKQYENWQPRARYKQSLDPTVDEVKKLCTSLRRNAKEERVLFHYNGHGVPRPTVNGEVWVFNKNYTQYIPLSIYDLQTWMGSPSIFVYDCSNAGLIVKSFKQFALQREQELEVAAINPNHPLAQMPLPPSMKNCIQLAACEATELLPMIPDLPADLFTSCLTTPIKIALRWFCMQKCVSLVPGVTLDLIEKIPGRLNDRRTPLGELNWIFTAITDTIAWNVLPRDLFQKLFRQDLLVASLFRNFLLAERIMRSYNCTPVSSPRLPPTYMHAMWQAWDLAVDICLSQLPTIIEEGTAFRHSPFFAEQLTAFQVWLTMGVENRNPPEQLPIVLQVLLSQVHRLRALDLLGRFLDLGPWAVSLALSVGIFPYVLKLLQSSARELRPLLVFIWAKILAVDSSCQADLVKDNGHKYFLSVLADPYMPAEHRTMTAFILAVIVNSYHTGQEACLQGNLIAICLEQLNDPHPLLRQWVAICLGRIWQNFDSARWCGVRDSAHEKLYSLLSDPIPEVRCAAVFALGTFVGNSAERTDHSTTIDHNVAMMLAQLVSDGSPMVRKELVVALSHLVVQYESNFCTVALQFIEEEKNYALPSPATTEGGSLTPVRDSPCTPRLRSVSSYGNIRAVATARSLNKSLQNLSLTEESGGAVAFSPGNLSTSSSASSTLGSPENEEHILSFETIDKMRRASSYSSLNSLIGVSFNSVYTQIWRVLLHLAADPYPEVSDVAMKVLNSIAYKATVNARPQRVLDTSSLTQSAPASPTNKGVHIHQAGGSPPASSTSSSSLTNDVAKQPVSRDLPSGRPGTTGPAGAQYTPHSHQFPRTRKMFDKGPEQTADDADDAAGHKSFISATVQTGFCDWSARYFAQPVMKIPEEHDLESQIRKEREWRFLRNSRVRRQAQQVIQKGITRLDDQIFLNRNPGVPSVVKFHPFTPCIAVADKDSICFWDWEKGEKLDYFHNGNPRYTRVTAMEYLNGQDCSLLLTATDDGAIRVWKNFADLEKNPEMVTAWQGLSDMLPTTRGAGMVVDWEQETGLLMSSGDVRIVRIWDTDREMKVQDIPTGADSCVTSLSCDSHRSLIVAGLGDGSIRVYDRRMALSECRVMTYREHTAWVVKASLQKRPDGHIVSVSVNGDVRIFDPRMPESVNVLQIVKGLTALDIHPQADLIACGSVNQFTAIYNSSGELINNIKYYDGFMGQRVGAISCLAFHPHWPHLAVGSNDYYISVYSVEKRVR
T3 sequence (Q7L523 whole entry): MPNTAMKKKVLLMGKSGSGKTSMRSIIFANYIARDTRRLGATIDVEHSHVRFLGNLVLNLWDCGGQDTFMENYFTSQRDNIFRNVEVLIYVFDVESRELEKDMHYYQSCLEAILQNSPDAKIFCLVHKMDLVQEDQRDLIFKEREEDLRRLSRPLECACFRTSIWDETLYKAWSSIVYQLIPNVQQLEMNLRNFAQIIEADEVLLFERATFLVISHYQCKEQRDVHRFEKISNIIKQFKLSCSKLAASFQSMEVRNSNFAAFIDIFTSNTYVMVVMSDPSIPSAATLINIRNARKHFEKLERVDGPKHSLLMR
T1 sequence (Q9HB90 2-399 limits assumed): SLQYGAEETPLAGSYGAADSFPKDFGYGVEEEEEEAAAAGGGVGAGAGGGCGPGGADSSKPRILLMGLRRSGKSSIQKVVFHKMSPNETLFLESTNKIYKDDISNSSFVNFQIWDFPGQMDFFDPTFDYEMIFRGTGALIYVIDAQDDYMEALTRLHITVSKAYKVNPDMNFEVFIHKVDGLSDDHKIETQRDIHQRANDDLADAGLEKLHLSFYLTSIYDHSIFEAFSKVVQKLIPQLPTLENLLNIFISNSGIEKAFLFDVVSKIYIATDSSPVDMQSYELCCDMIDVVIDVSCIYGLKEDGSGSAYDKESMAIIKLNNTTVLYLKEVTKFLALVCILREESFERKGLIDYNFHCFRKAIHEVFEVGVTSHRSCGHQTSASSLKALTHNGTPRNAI

B1: FLAG-N-terminal 119 fragment of SLC38A9.1 (other)
chain: DYKDDDDKMANMNSDSRHLGTSEVDHERDPGPMNIQFEPSDLRSKRPFCIEPTNIVNVNHVIQRVSDHASAMNKRIHYYSRLTTPADKALIAPDHVVPAPEECYVYSPLGSAYKLQSYTEGYGKNTS
Regarding B1, the binding result in assay [1], in assay [2], in assay [3] and in assay [4] was “binds” throughout.

B2: FLAG-SLC38A9.1 (other)
chain: DYKDDDDKMANMNSDSRHLGTSEVDHERDPGPMNIQFEPSDLRSKRPFCIEPTNIVNVNHVIQRVSDHASAMNKRIHYYSRLTTPADKALIAPDHVVPAPEECYVYSPLGSAYKLQSYTEGYGKNTSLVTIFMIWNTMMGTSILSIPWGIKQAGFTTGMCVIILMGLLTLYCCYRVVKSRTMMFSLDTTSWEYPDVCRHYFGSFGQWSSLLFSLVSLIGAMIVYWVLMSNFLFNTGKFIFNFIHHINDTDTILSTNNSNPVICPSAGSGGHPDNSSMIFYANDTGAQQFEKWWDKSRTVPFYLVGLLLPLLNFKSPSFFSKFNILGTVSVLYLIFLVTFKAVRLGFHLEFHWFIPTEFFVPEIRFQFPQLTGVLTLAFFIHNCIITLLKNNKKQENNVRDLCIAYMLVTLTYLYIGVLVFASFPSPPLSKDCIEQNFLDNFPSSDTLSFIARIFLLFQMMTVYPLLGYLARVQLLGHIFGDIYPSIFHVLILNLIIVGAGVIMACFYPNIGGIIRYSGAACGLAFVFIYPSLIYIISLHQEERLTWPKLIFHVFIIILGVANLIVQFFM
notes: Lysosomal membrane amino acid transporter, expressed in HEK-293T cells and immunoprecipitated from Triton X-100 lysate with anti-FLAG gel; also called SLC38A9 isoform 1; full-length SLC38A9
With B2, the binding result in assay [3] is given as “binds”.

B3: FLAG-metap2 (enzyme)
chain: DYKDDDDKMAGVEEVAASGSHLNGDLDPDDREEGAASTAEEAAKKKRRKKKKSKGPSAAGEQEPDKESGASVDEVARQLERSALEDKERDEDDEDGDGDGDGATGKKKKKKKKKRGPKVQTDPPSVPICDLYPNGVFPKGQECEYPPTQDGRTAAWRTTSEEKKALDQASEEIWNDFREAAEAHRQVRKYVMSWIKPGMTMIEICEKLEDCSRKLIKENGLNAGLAFPTGCSLNNCAAHYTPNAGDTTVLQYDDICKIDFGTHISGRIIDCAFTVTFNPKYDTLLKAVKDATNTGIKCAGIDVRLCDVGEAIQEVMESYEVEIDGKTYQVKPIRNLNGHSIGQYRIHAGKTVPIVKGGEATRMEEGEVYAIETFGSTGKGVVHDDMECSHYMKNFDVGHVPIRLPRTKHLLNVINENFGTLAFCRRWLDRLGESKYLMALKNLCDLGIVDPYPPLCDIKGSYTAQFEHTILLRPTCKEVVSRGDDY
notes: Control bait; also called control protein Metap2
In the case of B3, the binding result in assay [5] and in assay [6] was “no binding” in each case.

B4: HA-SLC38A9.4 (other)
single chain: LVTIFMIWNTMMGTSILSIPWGIKQAGFTTGMCVIILMGLLTLYCCYRVVKSRTMMFSLDTTSWEYPDVCRHYFGSFGQWSSLLFSLVSLIGAMIVYWVLMSNFLFNTGKFIFNFIHHINDTDTILSTNNSNPVICPSAGSGGHPDNSSMIFYANDTGAQQFEKWWDKSRTVPFYLVGLLLPLLNFKSPSFFSKFNILGTVSVLYLIFLVTFKAVRLGFHLEFHWFIPTEFFVPEIRFQFPQLTGVLTLAFFIHNCIITLLKNNKKQENNVRDLCIAYMLVTLTYLYIGVLVFASFPSPPLSKDCIEQNFLDNFPSSDTLSFIARIFLLFQMMTVYPLLGYLARVQLLGHIFGDIYPSIFHVLILNLIIVGAGVIMACFYPNIGGIIRYSGAACGLAFVFIYPSLIYIISLHQEERLTWPKLIFHVFIIILGVANLIVQFFM
notes: also called HA-tagged SLC38A9 isoform 4
As for B4, in assay [7], the binding result is listed as “no binding”.
